Source: US20210238298A1

Key:
[1] = molecular target: CTLA-4 (BMS, Orencia) (human) (UniProt P16410); experiment: cell-based or functional assay
[2] = molecular target: CD137 chimera 1550 (1407): human CD137 with mouse domains 1, 2A and 2B (aa 24-86), on FreeStyle 293-F cells (human; mouse) (UniProt P20334); experiment: flow cytometry, 293-F transfectants
Chain of UniProt P20334 (P20334 other isoform, or with tags, fused parts or gaps mutant limits assumed): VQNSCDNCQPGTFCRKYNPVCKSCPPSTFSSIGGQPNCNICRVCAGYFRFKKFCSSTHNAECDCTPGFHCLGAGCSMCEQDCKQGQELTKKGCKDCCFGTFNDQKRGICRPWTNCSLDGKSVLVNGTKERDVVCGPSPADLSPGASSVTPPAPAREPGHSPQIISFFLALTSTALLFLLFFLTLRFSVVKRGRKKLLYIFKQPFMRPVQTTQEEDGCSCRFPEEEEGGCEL

Chain of CTLA-4 (BMS, Orencia) (human) (P16410 38-152 limits assumed): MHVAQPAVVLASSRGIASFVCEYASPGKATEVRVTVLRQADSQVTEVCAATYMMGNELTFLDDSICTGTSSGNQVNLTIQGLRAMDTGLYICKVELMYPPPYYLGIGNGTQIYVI

Row | Mean IL-2 level (pg/ml) induced at 1.5 nM (control) [1] | relative binding (MFI sample/isotype control, normalised to full-length human CD137) [2] | Binder
1 | 1050 pg/mL | – | 1756/1757 (isotype control antibody fused to the 1040 CTLA4 binding region) (protein, part only; not given: Isotype control antibody chains, part only) APLKIQAYFNETADLPCQFANSQNLSLSELVVFWQDQENLVLNEVYLGKERFDSVDSKYMGRTSFDSDSWTLRLHNLQIKDKGRYQCIIHHKKPTGMINIHQMNSELSVLA
2 | – | 0.07 | anti-CD137 antibody 1204/1205 (antibody, IgG1, V domains shown) VH: EVQLLESGGGLVQPGGSLRLSCAASGFTFSSYYMGWVRQAPGKGLEWVSGIGSYYGYTGYADSVKGRFTISRDNSKNTLYLQMNSLRAEDTAVYYCARAYYDYNYYYAYFDYWGQGTLVTVSS VL: DIQMTQSPSSLSASVGDRVTITCRASQSISSYLNWYQQKPGKAPKLLIYAASSLQSGVPSRFSGSGSGTDFTLTISSLQPEDFATYYCQQSVPHYPFTFGQGTKLEIK
